Reference: patent US20260355328A1, “A complex comprising a cargo and a targeting moiety binding intelectin-1” (Stichting Radboud universitair medisch centrum, priority 2022, published 2026)
“Also recorded” adds a separate entry of the source.

Experiments:
[1] = Biodistribution of full-length lactoferrin, lactoferricin and hLF-6 in LPS-challenged mice (IVIS); assay type: in vivo; settings: fluorescent label, i.v., 2 h
Protocol: Lactoferrin and lactoferricin are cloned in an expression plasmid containing the C-terminal Sortase-sequence protein-LPETG-HHHHHH. LPETGHHHHHH is SEQ ID NO: 98. Next, the protein is expressed overnight in E. coli and purified from sonicated bacterial cell lysates by Ni-NTA beads using 400 mM imidazole to elute the proteins. After overnight dialysis, full-length lactoferrin and hLF-6 are labelled by means of a Sortase exchange reaction on the C-terminus with a fluorescent dye (Alexa647 or Cy5.5) for 2 h at 4 °C using a fluorescently labelled donor peptide (formula:biotin-GSSG-LPETG-label or biotin-GSSG-LPETG-PEG40k-label) as substrate GSSGLPETG is SEQ ID NO: 99. Excess donor peptide is removed by means of streptavidin binding of the biotin tag on the N-terminus of the donor peptide. Next, the purified labelled protein/peptide is injected into LPS-challenged mice via intravenous injection in the tail vein. Mice are sacrificed after 2 h, and organs harvested for imaging by IVIS. Biodistribution is quantified for each organ, and relative distribution is shown.

[2] = literature; cited from earlier work
[3] = literature; cited from earlier work; remark: listed apart in the source
ITLN-1 = settings: intestinal epithelial cells, literature; cited from earlier work

B1: full-length lactoferrin: full-length human lactoferrin protein (protein, UniProt P02788 1-710, looked up)
chain: MKLVFLVLLFLGALGLCLAGRRRSVQWCAVSQPEATKCFQWQRNMRKVRGPPVSCIKRDSPIQCIQAIAENRADAVTLDGGFIYEAGLAPYKLRPVAAEVYGTERQPRTHYYAVAVVKKGGSFQLNELQGLKSCHTGLRRTAGWNVPIGTLRPFLNWTGPPEPIEAAVARFFSASCVPGADKGQFPNLCRLCAGTGENKCAFSSQEPYFSYSGAFKCLRDGAGDVAFIRESTVFEDLSDEAERDEYELLCPDNTRKPVDKFKDCHLARVPSHAVVARSVNGKEDAIWNLLRQAQEKFGKDKSPKFQLFGSPSGQKDLLFKDSAIGFSRVPPRIDSGLYLGSGYFTAIQNLRKSEEEVAARRARVVWCAVGEQELRKCNQWSGLSEGSVTCSSASTTEDCIALVLKGEADAMSLDGGYVYTAGKCGLVPVLAENYKSQQSSDPDPNCVDRPVEGYLAVAVVRRSDTSLTWNSVKGKKSCHTAVDRTAGWNIPMGLLFNQTGSCKFDEYFSQSCAPGSDPRSNLCALCIGDEQGENKCVPNSNERYYGYTGAFRCLAENAGDVAFVKDVTVLQNTDGNNNEAWAKDLKLADFALLCLDGKRKPVTEARSCHLAMAPNHAVVSRMDKVERLKQVLLHQQAKFGRNGSDCPDKFCLFQSETKNLLFNDNTECLARLHGKTTYEKYLGPQYVAGITNLKKCSTSPLLEACEFLRK
modifications: full-length
notes: full-length human lactoferrin protein
bio-distribution [1]: accumulation predominantly in liver and spleen and less in kidney, brain and intestine
biodistribution of radioactive-labelled full-length protein [2]: comprise multiple organs and not primarily the kidney; also recorded: distribution to many organs
ribonuclease activity [3]: pyrimidine-specific ribonuclease activity
uptake upon overexpression of ITLN-1 (ITLN-1): increases uptake of lactoferrin in endosomes
